From PMC6495647 come the findings set out here.

In the test the target is MucA’ protein (plasmid pKM101 (host species not stated)). The test can be described thus: SPR; BIAcore 2000, kinetic analysis at lower ligand densities (577 RU of immobilized β, 1036 RU of immobilized MucA’ on CM5); MucB in the mobile phase; BSA reference cell; apparent constants; data not shown. Background: SPR reads the build-up and loss of mass on a sensor chip optically.

One may read the koff as the first-order rate constant of dissociation. The kon is the rate constant with which the complex forms.

B1: MucB protein (enzyme)
chain: MFALIDVNGMYASCEQAFRPDLANRAVAVLSNNDGNIVARNYLAKKAGLKMGDPYFKVRPIIERHNIAIFSSNYTLYASMSARFAAVVESLASHVEQYSIDELFVDCKGITAAMSLDAFGRQLREEVRRHTTLVCGVGIARTKTLAKLCNHAAKTWPATGGVVALDDGARLKKLMSILPVAEVWGVGHRTEKALATMGIKTVLDLARADTRLIRKTFGVVLERTVRELRGEACFSLEENPPAKQQIVVSRSFGQRVETLTDMQQAVTGFAARAAEKLRNERQYCRVISVFIRTSPYSVRDTQYANQATEKLTVATQDSRTIIQAAQALARIWREDIAYAKAGVMLADFSGKEAQLDLFDSATPSAGSEALMAVLDGINRRGKNQLFFAGQGIDNSFAMRRQMLSPDYTTDWRSIPIATIK
On to B1, for which the Kd came to 1.99 nM, the amount bound (RU) is 355 RU, the koff is 0.000127 s⁻¹ and the kon was 63900 M⁻¹ s⁻¹.
